Residue numbers refer to the chain shown, from its start.
B1: PSMA01023 Anti PSMA scFv-Fc (Fc fusion)
chain: DIQMTQSPSTLSASVGDRVTITCRASKSISKYLAWYQQKPGKAPKLLIHSGSSLESGVPSRFSGSGSGTEFTLTISSLQPDDFATYYCQQHIEYPWTFGQGTKVEIKGGGGSGGGGSGGGGSGGGGSQVQLVQSGAEVKKPGASVKVSCKASGYTFTDYYMHWVRQAPGQGLEWMGYFNPYNDYTRYAQKFQGRVTMTRDTSTSTVYMELSSLRSEDTAVYYCARSDGYYDAMDYWGQGTTVTVSSSEPKSSDKTHTCPPCPAPEAAGAPSVFLFPPKPKDTLMISRTPEVTCVVVDVSHEDPEVKFNWYVDGVEVHNAKTKPREEQYNSTYRVVSVLTVLHQDWLNGKEYKCAVSNKALPAPIEKTISKAKGQPREPQVYTLPPSRDELTKNQVSLTCLVKGFYPSDIAVEWESNGQPENNYKTTPPVLDSDGSFFLYSKLTVDKSRWQQGNVFSCSVMHEALHNHYTQKSLSLSPGK
notes: Monospecific, bivalent scFv-Fc, VL-VH; Contains germlining set G11
B2: PSMA01025 Anti-PSMA scFv-Fc (Fc fusion)
chain: B1 chain with Y177I, R186S
notes: Monospecific, bivalent scFv-Fc, VL-VH
B3: PSMA01024 Anti-PSMA scFv-Fc (Fc fusion)
chain: B1 chain with I2V, M4I, Y177I, R186S
notes: as for B2
B4: PSMA01021 Anti-PSMA scFv-Fc (Fc fusion)
chain: B1 chain with I2V, M4I, T203I, V206A, E216D
notes: as for B2
B5: PSMA01026 Anti PSMA scFv-Fc; Anti CD3 scFv-Fc (bispecific antibody)
chain 1: DIQMTQSPSTLSASVGDRVTITCRASKSISKYLAWYQQKPGKAPKLLIHSGSSLESGVPSRFSGSGSGTEFTLTISSLQPDDFATYYCQQHIEYPWTFGQGTKVEIKGGGGSGGGGSGGGGSGGGGSQVQLVQSGAEVKKPGASVKVSCKASGYTFTDYYMHWVRQAPGQGLEWMGYFNPYNDYTRYAQKFQGRVTMTRDTSTSTVYMELSSLRSEDTAVYYCARSDGYYDAMDYWGQGTTVTVEPKSSDKTHTCPPCPAPPAAAPSVFLFPPKPKDTLMISRTPEVTCVVVDVSHEDPEVKFNWYVDGVEVHNAKTKPREEQYNSTYRVVSVLTVLHQDWLNGKEYKCAVSNKALPAPIEKTISKAKGQPREPQVYTLPPSRDELTKNQVSLWCLVKGFYPSDIAVEWESNGQPENNYKTTPPVLDSDGSFFLYSKLTVDKSRWQQGNVFSCSVMHEALHNHYTQKSLSLSPG
chain 2: QVQLVQSGAEVKKPGASVKVSCKASGYTFTRSTMHWVRQAPGQGLEWIGYINPSSAYTNYAQKFQGRVTLTADKSTSTAYMELSSLRSEDTAVYYCASPQVHYDYNGFPYWGQGTLVTVSSGGGGSGGGGSGGGGSGGGGSDIQMTQSPSSLSASVGDRVTITCRASSSVSYMNWYQQKPGKAPKRWIYDSSKLASGVPSRFSGSGSGTDFTLTISSLQPEDFATYYCQQWSRNPPTFGQGTKVEIKEPKSSDKTHTCPPCPAPPAAAPSVFLFPPKPKDTLMISRTPEVTCVVVDVSHEDPEVKFNWYVDGVEVHNAKTKPREEQYNSTYRVVSVLTVLHQDWLNGKEYKCAVSNKALPAPIEKTISKAKGQPREPQVYTLPPSRDELTKNQVSLSCAVKGFYPSDIAVEWESNGQPENNYKTTPPVLDSDGSFFLVSKLTVDKSRWQQGNVFSCSVMHEALHNRFTQKSLSLSPG
B6: PSMA01019 Anti-PSMA scFv-Fc (Fc fusion)
chain: DVQITQSPSTLSASVGDRVTITCRASKSISKYLAWYQQKPGKAPKLLIHSGSSLESGVPSRFSGSGSGTEFTLTISSLQPDDFATYYCQQHIEYPWTFGQGTKVEIKGGGGSGGGGSGGGGSGGGGSEVQLLESGGGLVQPGGSLRLSCAASGYTFTDYYIHWVRQAPGKGLEWIGSFNPYNDYTSYADSVKGRATLSVDKSKNTAYLQMNSLRAEDTAVYYCARSDGYYDAMDYWGQGTLVTVSSSEPKSSDKTHTCPPCPAPEAAGAPSVFLFPPKPKDTLMISRTPEVTCVVVDVSHEDPEVKFNWYVDGVEVHNAKTKPREEQYNSTYRVVSVLTVLHQDWLNGKEYKCAVSNKALPAPIEKTISKAKGQPREPQVYTLPPSRDELTKNQVSLTCLVKGFYPSDIAVEWESNGQPENNYKTTPPVLDSDGSFFLYSKLTVDKSRWQQGNVFSCSVMHEALHNHYTQKSLSLSPGK
notes: as for B2
B7: PSMA01020 Anti-PSMA scFv-Fc (Fc fusion)
chain: B6 chain with V2I, I4M
notes: as for B2
B8: PSMA01012 Anti-PSMA scFv-Fc (Fc fusion)
chain: DIQMTQSPSAMSASVGDRVTITCRASKSISKYLAWFQQKPGKVPKLRIHSGSTLQSGVPSRFSGSGSGTEFTLTISSLQPEDFATYYCQQHIEYPWTFGQGTKVEIKRGGGGSGGGGSGGGGSQVQLVQSGAEVKKPGASVKVSCKASGYTFTDYYMHWVRQAPGQGLEWMGYFNPYNDYTRYAQKFQGRVTMTRDTSISTAYMELSSLRSDDTAVYYCARSDGYYDAMDYWGQGTTVTVSSSEPKSSDKTHTCPPCPAPEAAGAPSVFLFPPKPKDTLMISRTPEVTCVVVDVSHEDPEVKFNWYVDGVEVHNAKTKPREEQYNSTYRVVSVLTVLHQDWLNGKEYKCAVSNKALPAPIEKTISKAKGQPREPQVYTLPPSRDELTKNQVSLTCLVKGFYPSDIAVEWESNGQPENNYKTTPPVLDSDGSFFLYSKLTVDKSRWQQGNVFSCSVMHEALHNHYTQKSLSLSPGK
notes: Monospecific, bivalent scFv-Fc, scFv in VL-VH orientation; also called parent construct

Legend:
[1] = target: T1, Human PSMA ECD-AFH (TSC033), recombinant dimeric PSMA ECD (human, UniProt Q04609 44-750); assay: SPR (Biacore T200), scFv-Fc captured on anti-human IgG, dimeric PSMA ECD as analyte, 1:1 fit
T1 construct: SEC-purified dimer; also called HuPSMA-AFH; Avi-His-Human PSMA ECD
T1 sequence (Q04609 other isoform, or with tags, fused parts or gaps): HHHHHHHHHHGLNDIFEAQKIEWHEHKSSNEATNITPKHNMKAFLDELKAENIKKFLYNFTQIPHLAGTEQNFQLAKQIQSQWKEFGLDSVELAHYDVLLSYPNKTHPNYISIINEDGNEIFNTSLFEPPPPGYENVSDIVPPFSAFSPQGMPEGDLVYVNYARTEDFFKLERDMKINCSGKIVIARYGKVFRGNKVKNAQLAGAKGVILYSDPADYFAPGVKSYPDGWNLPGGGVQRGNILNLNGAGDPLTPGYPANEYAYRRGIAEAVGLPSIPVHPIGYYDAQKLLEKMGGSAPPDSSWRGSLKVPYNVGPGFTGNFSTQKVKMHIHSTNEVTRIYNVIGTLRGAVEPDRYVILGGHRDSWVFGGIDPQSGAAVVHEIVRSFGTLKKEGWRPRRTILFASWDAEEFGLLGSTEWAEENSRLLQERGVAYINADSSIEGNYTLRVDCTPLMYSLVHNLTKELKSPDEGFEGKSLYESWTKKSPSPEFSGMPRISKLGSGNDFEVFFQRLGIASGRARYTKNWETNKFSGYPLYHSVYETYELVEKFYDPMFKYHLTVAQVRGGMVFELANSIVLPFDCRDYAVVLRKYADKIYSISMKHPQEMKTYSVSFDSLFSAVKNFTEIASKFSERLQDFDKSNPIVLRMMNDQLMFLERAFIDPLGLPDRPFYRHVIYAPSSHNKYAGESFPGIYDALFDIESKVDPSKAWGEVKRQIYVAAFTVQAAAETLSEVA
Method: Mouse anti-human IgG (GE, BR-1008-39) at 25 μg/ml in 10 mM sodium acetate pH 5.0 was immobilized at a density of ˜2,000-4,000 response units (RU) onto each flow cell of a CM5 research-grade sensor chip (GE) by standard amine coupling chemistry. Each anti-PSMA protein at approximately 40 nM in dPBS with 0.2% BSA buffer was captured in a flow cell with the immobilized anti-human IgG at a flow rate of […] for up to 30 seconds, leaving one flow cell surface unmodified as the reference. Using a multi-cycle kinetics mode, a buffer blank and […] different concentrations of ECD ranging from 1 nM to 243 nM were sequentially injected through each flow cell at 30 μL/min with association times varying from 300-600 seconds and dissociation times varying from 600-1200 seconds. Regeneration was achieved by injection of 3 M MgCl₂ at a flow rate of 30 μL/min for up to 40 seconds followed by dPBS with 0.2% BSA buffer stabilization for 1 min.
Sensorgrams obtained from kinetic SPR measurements were analyzed using the double subtraction method. The signal from the reference flow cell was subtracted from the analyte binding response obtained from flow cells with captured ligands. The buffer blank response was then subtracted from analyte binding responses and the final double-referenced data were analyzed with Biacore T200 Evaluation software (2.0, GE), globally fitting data to derive kinetic parameters. All sensorgrams were fitted using a simple one-to-one binding model.

[2] = target: T2, Full-length Human PSMA (TSC435), on cells (human, UniProt Q04609 1-750); assay: cell binding on CHOK1SV/humanPSMA transfectants, MSD electrochemiluminescence (ECL), SULFO-TAG goat anti-human IgG
T2 construct: also called CHOK1SV/huPSMA; PSMA on C4-2B, 22RV1, LNCaP, MDA-PCa-2b cells
Method: (§1) To measure the relative binding activity of humanized PSMA-binding domain variants, constructs were tested in cell binding assays on CHOK1SV cells transfected with human or cynomolgus PSMA. The generation of CHOK1SV/huPSMA cells was described earlier; CHOK1SV/cynoPSMA cells were generated using the same method. Bivalent PSMA-binding domains variants in scFv-Fc format (constructs PSMA01019, PSMA01020, PSMA01021, PSMA01023, PSMA01024 and PSMA01025) were tested in these assays.
(§2) Binding studies on CHOK1SV transfectants were performed in live cell-based ELISA using electrochemiluminescence (Meso Scale Discovery). CHOK1SV cells were washed and seeded at 50,000 cells/well in 1× Hank's Balanced Salt Solution (HBSS) on 96-well Multi-Array High Bind plates (Meso Scale Discovery) and incubated at 37° C. for one hour. Following a blocking step in PBS buffer with 20% FBS, serial dilutions of PSMA-binding constructs (from 0.002 to 100 nM) were added in PBS buffer with 10% FBS and incubated at room temperature for one hour. Plates were washed with PBS and the specific binding levels were detected by SULFO TAG-labeled goat anti-human IgG antibody (Meso Scale Discovery #R32AJ). Following an hour incubation and wash steps, 150 μL/well surfactant free 1× Read Buffer T were added and samples were analyzed on MSD Sector Imager (Meso Scale Discovery). Resulting electrochemiluminescence (ECL) values versus concentrations were plotted and nonlinear regression analysis to determine EC50 values was performed in GraphPad Prism 7® graphing and statistics software.

[3] = target: T3, Full-length cynomolgus monkey PSMA (TSC308), on cells (cynomolgus monkey, UniProt Q04609 1-750 (human entry)); assay: cell binding on CHOK1SV/cynoPSMA transfectants, MSD electrochemiluminescence (ECL), SULFO-TAG goat anti-human IgG
T3 construct: also called cyno PSMA; CHOK1SV/cynoPSMA
T3 chain: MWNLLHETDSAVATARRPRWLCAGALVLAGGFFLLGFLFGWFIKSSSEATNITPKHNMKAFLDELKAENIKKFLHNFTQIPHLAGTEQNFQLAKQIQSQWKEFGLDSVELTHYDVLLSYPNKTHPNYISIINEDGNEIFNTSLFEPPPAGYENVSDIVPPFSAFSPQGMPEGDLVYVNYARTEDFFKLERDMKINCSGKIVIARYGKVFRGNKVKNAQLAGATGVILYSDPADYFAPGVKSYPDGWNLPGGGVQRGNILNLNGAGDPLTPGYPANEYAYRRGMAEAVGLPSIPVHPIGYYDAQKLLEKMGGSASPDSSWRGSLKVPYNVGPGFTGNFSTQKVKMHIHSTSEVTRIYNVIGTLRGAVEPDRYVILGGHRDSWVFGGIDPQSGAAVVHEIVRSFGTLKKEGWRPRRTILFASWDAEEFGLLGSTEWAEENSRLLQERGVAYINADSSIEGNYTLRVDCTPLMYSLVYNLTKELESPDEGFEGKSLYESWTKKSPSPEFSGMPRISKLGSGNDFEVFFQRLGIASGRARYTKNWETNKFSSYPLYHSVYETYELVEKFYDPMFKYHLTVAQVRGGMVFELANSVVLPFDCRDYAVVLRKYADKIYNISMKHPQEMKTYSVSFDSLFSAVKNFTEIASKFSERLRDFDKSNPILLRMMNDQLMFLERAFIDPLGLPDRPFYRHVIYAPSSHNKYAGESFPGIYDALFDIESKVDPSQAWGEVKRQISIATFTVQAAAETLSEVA
Method: as §1, §2

[4] = target: T4, human CD3ε in the TCR/CD3 complex on Jurkat cells (human, UniProt P07766 23-207); assay: flow cytometry on Jurkat cells, PE goat anti-human IgG Fc secondary, MFI (median)
T4 construct: whole, on cells; On the cells it stands in the whole TCR/CD3 complex; also called CD3 (+) cells; CD3-expressing Jurkat cells
T4 sequence (P07766 23-207, one chain of several): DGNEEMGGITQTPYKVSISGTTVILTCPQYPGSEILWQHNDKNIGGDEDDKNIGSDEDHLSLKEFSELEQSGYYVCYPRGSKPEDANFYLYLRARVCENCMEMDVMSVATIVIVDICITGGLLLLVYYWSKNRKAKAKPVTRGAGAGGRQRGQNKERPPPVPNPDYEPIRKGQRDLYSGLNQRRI

[5] = target: T2, Full-length Human PSMA (TSC435), on …; assay: flow cytometry on C4-2B cells, PE goat anti-human IgG Fc secondary, MFI (median)

Binder | Kd [1] [nM] | koff [1] [s⁻¹] | kon [1] [M⁻¹ s⁻¹] | EC50 [2] [nM] | EC50 [3] [nM] | EC50 [4] [nM] | EC50 [5] [nM]
B1 | 40 | 0.00018 | 4500 | 1 | 5 |  | 
B2 | 271 | 0.011 | 40000 | 11 | 10 |  | 
B3 | 299 | 0.0026 | 8500 | 12 | 9 |  | 
B4 | 18 | 0.00017 | 9400 | 2 | 6 |  | 
B5 |  |  |  |  |  | 26 | 23
B6 | 15 | 0.00019 | 13000 | 4 | 8 |  | 
B7 | 16 | 0.00019 | 12000 | 4 | 8 |  | 
B8 | 40 | 0.0011 | 27000 | 6 | 8 |  | 

Reference: patent publication US20240301086A1 (APTEVO RESEARCH AND DEVELOPMENT, published 2024)
